Data: patent publication US20170291939A1 (Novartis, published 2017)

T1: human IL-17A (construct not specified) (human, UniProt Q16552 24-155, limits assumed)
T1 construct: also called huIL-17A
T1 sequence: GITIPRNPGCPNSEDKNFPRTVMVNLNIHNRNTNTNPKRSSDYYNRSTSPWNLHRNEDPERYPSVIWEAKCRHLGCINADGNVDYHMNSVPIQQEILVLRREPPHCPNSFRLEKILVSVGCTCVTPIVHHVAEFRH


Legend:
[1] = target: T1, human IL-17A (construct not specified); experiment: ELISA, coated huIL-17A, long wash
[2] = target: T1, human IL-17A (construct not specified); experiment: ELISA, coated huIL-17A, crude Fab extract
[3] = target: T1, human IL-17A (construct not specified); experiment: ELISA, coated huIL-17A, then 200 nM XAB1 Fab as competitor

Off-rate ELISA (normalized to XAB1 Fab) [1] [fold] | Classic ELISA (normalized to XAB1 Fab) [2] [fold] | Competition ELISA (normalized to XAB1 Fab) [3] [fold] | Binder
34.2 | 2.9 | 36.6 | MB454 (Fab, V domains shown, Fab variant of XAB1) VH: EVQLVESGGDLVQPGGSLRLSCAASGFTFSSYWMSWVRQAPGKGLEWVANIKQDGSEKYYVDSVKGRFTISRDNAKNSLYLQMNSLRAEDTAVYYCARDRGSLYYWGQGTLVTVSS VL: AIQLTQSPSSLSASVGDRVTITCRPSQGILWALAWYQQKPGKAPKLLIYDASSLENGVPSRFSGSGSGTDFTLTISSLQPEDFATYYCQQFNSYPLTFGGGTKVEIK
39.7 | 2.3 | 29.3 | MB433 (Fab, V domains shown, Fab variant of XAB1) VH: EVQLVESGGDLVQPGGSLRLSCAASGFTFSSYWMSWVRQAPGKGLEWVANIKQDGSEKYYVDSVKGRFTISRDNAKNSLYLQMNSLRAEDTAVYYCARDRGSLYYWGQGTLVTVSS VL: AIQLTQSPSSLSASVGDRVTITCRPSQGIYWGLAWYQQKPGKAPKLLIYDASSLENGVPSRFSGSGSGTDFTLTISSLQPEDFATYYCQQFNSYPLTFGGGTKVEIK
44.2 | 2.3 | 37.3 | MB432 (Fab, V domains shown, Fab variant of XAB1) VH: EVQLVESGGDLVQPGGSLRLSCAASGFTFSSYWMSWVRQAPGKGLEWVANIKQDGSEKYYVDSVKGRFTISRDNAKNSLYLQMNSLRAEDTAVYYCARDRGSLYYWGQGTLVTVSS VL: AIQLTQSPSSLSASVGDRVTITCRPSQGILFALAWYQQKPGKAPKLLIYDASSLENGVPSRFSGSGSGTDFTLTISSLQPEDFATYYCQQFNSYPLTFGGGTKVEIK
48.9 | 3.2 | 52.4 | MB444 (Fab, V domains shown, Fab variant of XAB1) VH: EVQLVESGGDLVQPGGSLRLSCAASGFTFSSYWMSWVRQAPGKGLEWVANIKQDGSEKYYVDSVKGRFTISRDNAKNSLYLQMNSLRAEDTAVYYCARDRGSLYYWGQGTLVTVSS VL: AIQLTQSPSSLSASVGDRVTITCRPSQGILWELAWYQQKPGKAPKLLIYDASSLENGVPSRFSGSGSGTDFTLTISSLQPEDFATYYCQQFNSYPLTFGGGTKVEIK
40.4 | 2.9 | 51.5 | MB448 (Fab, V domains shown, Fab variant of XAB1) VH: EVQLVESGGDLVQPGGSLRLSCAASGFTFSSYWMSWVRQAPGKGLEWVANIKQDGSEKYYVDSVKGRFTISRDNAKNSLYLQMNSLRAEDTAVYYCARDRGSLYYWGQGTLVTVSS VL: AIQLTQSPSSLSASVGDRVTITCRPSQGIVWMLAWYQQKPGKAPKLLIYDASSLENGVPSRFSGSGSGTDFTLTISSLQPEDFATYYCQQFNSYPLTFGGGTKVEIK
52.5 | 2.8 | 54 | MB440 (Fab, V domains shown, Fab variant of XAB1) VH: EVQLVESGGDLVQPGGSLRLSCAASGFTFSSYWMSWVRQAPGKGLEWVANIKQDGSEKYYVDSVKGRFTISRDNAKNSLYLQMNSLRAEDTAVYYCARDRGSLYYWGQGTLVTVSS VL: AIQLTQSPSSLSASVGDRVTITCRPSQGILWQLAWYQQKPGKAPKLLIYDASSLENGVPSRFSGSGSGTDFTLTISSLQPEDFATYYCQQFNSYPLTFGGGTKVEIK
49.8 | 2.9 | 62.8 | MB461 (Fab, V domains shown, Fab variant of XAB1) VH: EVQLVESGGDLVQPGGSLRLSCAASGFTFSSYWMSWVRQAPGKGLEWVANIKQDGSEKYYVDSVKGRFTISRDNAKNSLYLQMNSLRAEDTAVYYCARDRGSLYYWGQGTLVTVSS VL: AIQLTQSPSSLSASVGDRVTITCRPSQGIYWTLAWYQQKPGKAPKLLIYDASSLENGVPSRFSGSGSGTDFTLTISSLQPEDFATYYCQQFNSYPLTFGGGTKVEIK
33 | 2.7 | 42.1 | MB458 (Fab, V domains shown, Fab variant of XAB1) VH: EVQLVESGGDLVQPGGSLRLSCAASGFTFSSYWMSWVRQAPGKGLEWVANIKQDGSEKYYVDSVKGRFTISRDNAKNSLYLQMNSLRAEDTAVYYCARDRGSLYYWGQGTLVTVSS VL: AIQLTQSPSSLSASVGDRVTITCRPSQGIWYQLAWYQQKPGKAPKLLIYDASSLENGVPSRFSGSGSGTDFTLTISSLQPEDFATYYCQQFNSYPLTFGGGTKVEIK
41.5 | 2.9 | 53.3 | MB450 (Fab, V domains shown, Fab variant of XAB1) VH: EVQLVESGGDLVQPGGSLRLSCAASGFTFSSYWMSWVRQAPGKGLEWVANIKQDGSEKYYVDSVKGRFTISRDNAKNSLYLQMNSLRAEDTAVYYCARDRGSLYYWGQGTLVTVSS VL: AIQLTQSPSSLSASVGDRVTITCRPSQGIMWWLAWYQQKPGKAPKLLIYDASSLENGVPSRFSGSGSGTDFTLTISSLQPEDFATYYCQQFNSYPLTFGGGTKVEIK
45.1 | 2.4 | 46.7 | MB456 (Fab, V domains shown, Fab variant of XAB1) VH: EVQLVESGGDLVQPGGSLRLSCAASGFTFSSYWMSWVRQAPGKGLEWVANIKQDGSEKYYVDSVKGRFTISRDNAKNSLYLQMNSLRAEDTAVYYCARDRGSLYYWGQGTLVTVSS VL: AIQLTQSPSSLSASVGDRVTITCRPSQGILWHLAWYQQKPGKAPKLLIYDASSLENGVPSRFSGSGSGTDFTLTISSLQPEDFATYYCQQFNSYPLTFGGGTKVEIK
41.5 | 2.7 | 41.1 | MB438 (Fab, V domains shown, Fab variant of XAB1) VH: EVQLVESGGDLVQPGGSLRLSCAASGFTFSSYWMSWVRQAPGKGLEWVANIKQDGSEKYYVDSVKGRFTISRDNAKNSLYLQMNSLRAEDTAVYYCARDRGSLYYWGQGTLVTVSS VL: AIQLTQSPSSLSASVGDRVTITCRPSQGIPYALAWYQQKPGKAPKLLIYDASSLENGVPSRFSGSGSGTDFTLTISSLQPEDFATYYCQQFNSYPLTFGGGTKVEIK
44.7 | 2.7 | 44.6 | MB435 (Fab, V domains shown) VH: EVQLVESGGDLVQPGGSLRLSCAASGFTFSSYWMSWVRQAPGKGLEWVANIKQDGSEKYYVDSVKGRFTISRDNAKNSLYLQMNSLRAEDTAVYYCARDRGSLYYWGQGTLVTVSS VL: AIQLTQSPSSLSASVGDRVTITCRPSQGINWELAWYQQKPGKAPKLLIYDASSLENGVPSRFSGSGSGTDFTLTISSLQPEDFATYYCQQFNSYPLTFGGGTKVEIK
44.4 | 2.4 | 39.5 | MB434 (Fab, V domains shown, Fab variant of XAB1) VH: EVQLVESGGDLVQPGGSLRLSCAASGFTFSSYWMSWVRQAPGKGLEWVANIKQDGSEKYYVDSVKGRFTISRDNAKNSLYLQMNSLRAEDTAVYYCARDRGSLYYWGQGTLVTVSS VL: AIQLTQSPSSLSASVGDRVTITCRPSQGIWWYLAWYQQKPGKAPKLLIYDASSLENGVPSRFSGSGSGTDFTLTISSLQPEDFATYYCQQFNSYPLTFGGGTKVEIK
34.7 | 2.7 | 41 | MB457 (Fab, V domains shown, Fab variant of XAB1) VH: EVQLVESGGDLVQPGGSLRLSCAASGFTFSSYWMSWVRQAPGKGLEWVANIKQDGSEKYYVDSVKGRFTISRDNAKNSLYLQMNSLRAEDTAVYYCARDRGSLYYWGQGTLVTVSS VL: AIQLTQSPSSLSASVGDRVTITCRPSQGIIWSLAWYQQKPGKAPKLLIYDASSLENGVPSRFSGSGSGTDFTLTISSLQPEDFATYYCQQFNSYPLTFGGGTKVEIK
43.3 | 2.7 | 46.4 | MB453 (Fab, V domains shown, Fab variant of XAB1) VH: EVQLVESGGDLVQPGGSLRLSCAASGFTFSSYWMSWVRQAPGKGLEWVANIKQDGSEKYYVDSVKGRFTISRDNAKNSLYLQMNSLRAEDTAVYYCARDRGSLYYWGQGTLVTVSS VL: AIQLTQSPSSLSASVGDRVTITCRPSQGIVFWLAWYQQKPGKAPKLLIYDASSLENGVPSRFSGSGSGTDFTLTISSLQPEDFATYYCQQFNSYPLTFGGGTKVEIK
34.2 | 2.7 | 31.6 | MB463 (Fab, V domains shown, Fab variant of XAB1) VH: EVQLVESGGDLVQPGGSLRLSCAASGFTFSSYWMSWVRQAPGKGLEWVANIKQDGSEKYYVDSVKGRFTISRDNAKNSLYLQMNSLRAEDTAVYYCARDRGSLYYWGQGTLVTVSS VL: AIQLTQSPSSLSASVGDRVTITCRPSQGIYFELAWYQQKPGKAPKLLIYDASSLENGVPSRFSGSGSGTDFTLTISSLQPEDFATYYCQQFNSYPLTFGGGTKVEIK
45.5 | 3 | 57 | MB447 (Fab, V domains shown, Fab variant of XAB1) VH: EVQLVESGGDLVQPGGSLRLSCAASGFTFSSYWMSWVRQAPGKGLEWVANIKQDGSEKYYVDSVKGRFTISRDNAKNSLYLQMNSLRAEDTAVYYCARDRGSLYYWGQGTLVTVSS VL: AIQLTQSPSSLSASVGDRVTITCRPSQGIFWWLAWYQQKPGKAPKLLIYDASSLENGVPSRFSGSGSGTDFTLTISSLQPEDFATYYCQQFNSYPLTFGGGTKVEIK
